# Reference: patent US20220396632A1 (VERSEAU THERAPEUTICS, published 2022)
# Non-standard residues stand in square brackets, D forms with d. No end group written: not given here. *: point of attachment. Biotin = O=C1N[C@H]2[C@H](CS[C@H]2CCCCC(=O)*)N1; sY = N[C@@H](Cc1ccc(OS(=O)(=O)O)cc1)C(=O)O
# B1: 02G01 (antibody, IgG4, V domains shown)
# VH: EVQLVQSGAEVKKPGASVKVSCKASGYTFTSYGISWVRQAPGQGLEWMGWISAYNGNTNYAQKLQGRVTMTTDTSTSTAYMELRSLRSDDTAVYYCARVTRLPGGGYAFDIWGQGTMVTVSL
# VL: QSVLTQPPSASGTPGQRITISCSGSTSNIGNKHVYWYQQFPGAAPKLLIHNTNKRPSGVPDRFSGSKSGTSASLAISGLQSDDEADYYCAAWDGSLSAWVFGGGTKLTVL
# B2: 02H08 (antibody, IgG4, V domains shown)
# VH: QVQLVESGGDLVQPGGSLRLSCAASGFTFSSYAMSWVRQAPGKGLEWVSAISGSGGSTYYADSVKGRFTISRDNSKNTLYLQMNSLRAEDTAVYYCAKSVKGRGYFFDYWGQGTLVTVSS
# VL: QSVLTQPPSVSAAPGQKVTISCSGSYFNIGNHYVSWYHQLPGTAPKLLIYDNNLRPSGIPDRFSASKSGTSATLGITGLQTGDEGDYYCGTWDSSLSGRVFGGGTKLTVL
# B3: 06B02 (antibody, IgG4, V domains shown)
# VH: QVQLVESGPGLVKPSETLSLTCTVSGVSVSSYYWTWVRQSPGKGLEWIGHVHHSGISNYNPSLKSRVVMSVDTSKNYFSLKLRSVTAADTAVYYCARGGPRISPTNWGQGTLVTVSS
# VL: QPVLTQPPSVSKALRQTATLTCTGNSNNVGYQGATWLRQHQGHPPRLLSYRNNNRPSGISERFSASRSGNTATLTITGLQPDDEADYYCAAWDSSLSAWVFGGGTKLTVL
# B4: 03B01 (antibody, IgG4, V domains shown)
# VH: QMQLVQSGAEVKKPGASVKVSCRASGYRFSTYAISWVRQAPGQGLEWIGWISTHHGNTKYAQKFQDRVTMTADASTSIAYMELRSLRSDDTAVYYCAAAIGNYWGQGTLVTVSS
# VL: EIVLTQSPAILSVSPGERASLSCRASQSVSSKLAWYQQKPGQAPRLLIYGASTRATGIPPRFSGSGSGTDFTLTISSLEPEDFAVYYCQQRSNWPLTFGGGTKVEIK
# B5: 05A07 (antibody, IgG4, V domains shown)
# VH: QVQLVQSGSEVKRPGASVKVSCKTSGYTFSNYGIAWVRQAPGQGLEWVGWVSAYNGKTGASQKLQGRVTMTTDRSTTTAYLELRSLQSDDTAVYYCARGVKGGLTGYARDYWGQGTLVIVSS
# VL: DIVLTQSPRSLPVTLGQPASISCRSSQSLVNRAGDTYLNWFQQRPGQSPRRLIYKVSNRDSGVPDRFSGSGSGTDFTLKISRVEAEDVGVYYCMQGTQWPYTFGQGTKLEIK
# Molecular target: T1, Human fibrinogen protein (ThermoFisher, RP-43142) (human, UniProt P02671 20-629; P02675 31-491; P02679 27-453, limits assumed, natural sulfotyrosines)
# T1 construct: mature; Native dimer with 3 pairs of non-identical chains; also called gamma-fibrinogen; γ fibrinogen protein
# T1 sequence (looked up) 1: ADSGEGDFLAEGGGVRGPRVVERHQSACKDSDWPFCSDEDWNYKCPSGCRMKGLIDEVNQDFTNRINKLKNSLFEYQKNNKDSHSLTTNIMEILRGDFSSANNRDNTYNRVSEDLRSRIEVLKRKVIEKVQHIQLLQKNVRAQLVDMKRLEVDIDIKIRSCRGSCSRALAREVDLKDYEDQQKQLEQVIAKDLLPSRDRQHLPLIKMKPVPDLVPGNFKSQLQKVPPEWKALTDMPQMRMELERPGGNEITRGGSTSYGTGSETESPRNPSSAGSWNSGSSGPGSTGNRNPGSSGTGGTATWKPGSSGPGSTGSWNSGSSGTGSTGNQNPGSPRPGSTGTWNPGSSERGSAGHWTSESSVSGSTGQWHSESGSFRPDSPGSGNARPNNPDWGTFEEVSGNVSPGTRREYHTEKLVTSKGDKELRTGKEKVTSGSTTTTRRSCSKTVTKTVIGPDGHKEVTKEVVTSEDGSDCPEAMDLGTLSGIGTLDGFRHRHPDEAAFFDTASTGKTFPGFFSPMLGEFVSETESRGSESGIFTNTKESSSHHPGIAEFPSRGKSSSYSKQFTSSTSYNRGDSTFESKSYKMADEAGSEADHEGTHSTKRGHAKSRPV
# T1 sequence (looked up) 2: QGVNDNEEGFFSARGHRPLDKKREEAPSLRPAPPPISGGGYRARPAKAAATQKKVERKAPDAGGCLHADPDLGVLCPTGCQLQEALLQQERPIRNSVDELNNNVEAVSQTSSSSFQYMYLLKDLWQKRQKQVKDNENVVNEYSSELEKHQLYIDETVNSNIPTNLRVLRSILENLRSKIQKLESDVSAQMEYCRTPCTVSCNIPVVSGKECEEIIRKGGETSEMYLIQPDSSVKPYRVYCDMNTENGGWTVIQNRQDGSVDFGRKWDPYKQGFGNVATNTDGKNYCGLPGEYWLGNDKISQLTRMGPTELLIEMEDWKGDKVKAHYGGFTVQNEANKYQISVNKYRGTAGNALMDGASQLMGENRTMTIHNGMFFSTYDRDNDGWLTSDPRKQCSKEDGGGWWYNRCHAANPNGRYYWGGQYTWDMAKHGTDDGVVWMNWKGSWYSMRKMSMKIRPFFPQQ
# T1 sequence (looked up) 3: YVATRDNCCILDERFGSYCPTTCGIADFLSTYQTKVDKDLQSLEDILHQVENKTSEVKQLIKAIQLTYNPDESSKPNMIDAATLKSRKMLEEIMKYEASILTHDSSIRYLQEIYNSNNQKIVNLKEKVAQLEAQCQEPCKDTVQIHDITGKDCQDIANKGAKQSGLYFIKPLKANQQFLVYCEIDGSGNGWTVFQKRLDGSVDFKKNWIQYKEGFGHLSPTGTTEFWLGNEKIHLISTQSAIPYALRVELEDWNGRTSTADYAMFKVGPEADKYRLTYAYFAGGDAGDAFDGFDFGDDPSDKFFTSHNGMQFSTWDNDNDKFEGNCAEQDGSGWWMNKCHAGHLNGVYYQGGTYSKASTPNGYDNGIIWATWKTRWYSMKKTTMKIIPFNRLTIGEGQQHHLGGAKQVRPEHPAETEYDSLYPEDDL
# Test: ELISA, 50 nM mAb
# Description: (§1) Recombinant PSGL-1-hFc1 chimera protein consisting of PSGL-1's extracellular domain (ECD) served as a positive control. […] Primary antibody was added (25 ul per well) in duplicate at 50 nM in assay buffer (blocking buffer containing 0.05% Tween®20) into test and control (just blocked) wells and the plate incubated for 45 min at 37° C.
row,binding normalized to PSGL-1,Binder
1,0.07,B1
2,0.11,B2
3,0.03,B3
4,0.11,B4
5,0.53,B5

# Molecular target: T2, Sulfotyr fibrinogen γ peptide (not fully specified; Y8 and Y12 sulfated (SO3); C-terminal biotin)
# T2 construct: also called Fibrinogen gamma peptide; human sulfotyrosinylated fibrinogen peptide
# T2 peptide: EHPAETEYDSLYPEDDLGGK
# Test: ELISA, 50 nM mAb
# Description: as §1
row,binding normalized to PSGL-1,Binder
1,0.97,B1
2,1.34,B2
3,1.22,B3
4,1.23,B4
5,1.22,B5

# Molecular target: T3, SulfoCCK biotin peptide (human)
# T3 construct: also called sulfotyrosine CCK peptide
# T3 peptide: SHRISDRD[sY]MGWMDFGGK(Biotin)
# Test: ELISA, 50 nM mAb
# Description: as §1
row,binding normalized to PSGL-1,Binder
1,1.1,B1
2,1.27,B2
3,0.78,B3
4,1.14,B4
5,1.17,B5

# Molecular target: T4, Human complement C4 protein (Millipore Sigma, Cat. 204886) (human, UniProt P0C0L4 20-675; P0C0L4 680-1446; P0C0L4 1454-1744, limits assumed, natural sulfotyrosines)
# T4 construct: mature
# T4 sequence (P0C0L4 20-675 limits assumed, form in doubt, chain 1 of 3): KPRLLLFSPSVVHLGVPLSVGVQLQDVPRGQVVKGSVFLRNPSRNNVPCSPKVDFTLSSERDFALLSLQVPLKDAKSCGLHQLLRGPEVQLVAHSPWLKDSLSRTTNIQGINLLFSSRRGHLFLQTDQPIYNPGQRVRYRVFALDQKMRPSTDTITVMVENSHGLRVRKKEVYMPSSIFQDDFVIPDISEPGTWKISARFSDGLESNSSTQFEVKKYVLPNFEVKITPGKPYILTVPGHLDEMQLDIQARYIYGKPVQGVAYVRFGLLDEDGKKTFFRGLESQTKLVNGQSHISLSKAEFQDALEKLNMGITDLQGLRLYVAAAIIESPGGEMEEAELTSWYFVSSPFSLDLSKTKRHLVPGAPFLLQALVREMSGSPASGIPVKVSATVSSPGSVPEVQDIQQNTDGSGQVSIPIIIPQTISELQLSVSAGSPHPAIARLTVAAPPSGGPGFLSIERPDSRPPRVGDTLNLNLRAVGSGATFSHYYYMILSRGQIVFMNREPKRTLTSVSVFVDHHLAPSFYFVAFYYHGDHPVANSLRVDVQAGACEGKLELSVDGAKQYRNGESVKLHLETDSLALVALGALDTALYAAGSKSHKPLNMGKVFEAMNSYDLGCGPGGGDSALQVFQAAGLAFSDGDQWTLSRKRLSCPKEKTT
# T4 sequence (P0C0L4 680-1446 limits assumed, form in doubt, chain 2 of 3): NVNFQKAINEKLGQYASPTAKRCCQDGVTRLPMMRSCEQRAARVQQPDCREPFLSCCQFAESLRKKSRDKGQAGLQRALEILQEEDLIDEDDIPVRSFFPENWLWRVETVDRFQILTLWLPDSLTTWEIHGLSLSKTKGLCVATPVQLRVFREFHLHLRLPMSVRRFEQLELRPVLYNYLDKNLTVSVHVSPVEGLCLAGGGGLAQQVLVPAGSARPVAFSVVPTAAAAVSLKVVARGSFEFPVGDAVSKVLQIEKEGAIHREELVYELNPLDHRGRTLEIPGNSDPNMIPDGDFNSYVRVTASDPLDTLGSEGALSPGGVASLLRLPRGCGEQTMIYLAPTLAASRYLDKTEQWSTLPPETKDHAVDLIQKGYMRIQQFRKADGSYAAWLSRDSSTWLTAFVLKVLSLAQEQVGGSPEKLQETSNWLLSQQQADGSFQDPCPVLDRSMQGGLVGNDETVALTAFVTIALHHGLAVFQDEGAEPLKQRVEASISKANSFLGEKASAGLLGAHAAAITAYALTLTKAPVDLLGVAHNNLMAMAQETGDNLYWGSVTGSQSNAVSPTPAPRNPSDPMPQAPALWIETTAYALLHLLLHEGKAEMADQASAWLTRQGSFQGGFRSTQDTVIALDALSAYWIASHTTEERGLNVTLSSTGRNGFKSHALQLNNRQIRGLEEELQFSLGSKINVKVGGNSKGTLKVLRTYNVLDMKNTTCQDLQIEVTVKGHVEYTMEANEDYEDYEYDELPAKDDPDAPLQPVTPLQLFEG
# T4 sequence (P0C0L4 1454-1744 limits assumed, form in doubt, chain 3 of 3): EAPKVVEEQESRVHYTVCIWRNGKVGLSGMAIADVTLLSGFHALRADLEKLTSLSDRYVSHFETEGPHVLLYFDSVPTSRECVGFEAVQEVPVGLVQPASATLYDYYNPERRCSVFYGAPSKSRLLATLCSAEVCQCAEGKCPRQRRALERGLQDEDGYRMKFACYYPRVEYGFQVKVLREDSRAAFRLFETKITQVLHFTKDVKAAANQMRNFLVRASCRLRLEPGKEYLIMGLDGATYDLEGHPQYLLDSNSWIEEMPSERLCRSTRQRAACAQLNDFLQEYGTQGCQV
# Test: ELISA, 50 nM mAb
# Description: as §1
row,binding normalized to PSGL-1,Binder
1,0.58,B1
2,0.94,B2
3,1.09,B3
4,1.1,B4
5,1.13,B5

# Molecular target: T5, Sulfotyrosine CCR2b biotin peptide (human)
# T5 construct: also called CCR2b peptide
# T5 peptide: TTFFD[sY]D[sY]GAPSHGGK(Biotin)
# Test: ELISA, 50 nM mAb
# Description: as §1
row,binding normalized to PSGL-1,Binder
1,0.78,B1
2,1.32,B2
3,0.61,B3
4,1.1,B4
5,1.09,B5

# Molecular target: T6, SulfoTyr C4 peptide (not fully specified; Y4, Y7 and Y9 sulfated (SO3); C-terminal biotin)
# T6 construct: also called C4 alpha chain peptide; human sulfotyrosinylated C4 peptide
# T6 peptide: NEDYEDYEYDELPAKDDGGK
# Test: ELISA, 50 nM mAb
# Description: as §1
row,binding normalized to PSGL-1,Binder
1,0.94,B1
2,1.34,B2
3,0.97,B3
4,1.15,B4
5,1.15,B5

# Molecular target: T7, Sulfotyrosine D6 biotin peptide (human)
# T7 construct: also called D6 peptide
# T7 peptide: ENSSFY[sY][sY]D[sY]LDEVAFGGK(Biotin)
# Test: ELISA, 50 nM mAb
# Description: as §1
row,binding normalized to PSGL-1,Binder
1,0.69,B1
2,1.22,B5

# Molecular target: T8, Cynomolgus PSGL-1(ECD)-hFc1 (cynomolgus macaque)
# T8 construct: also called Cyno PSGL1-Fc; Cyno PSGL-1(ECD)-Fc
# Test: ELISA, plate cyno PSGL-1(ECD)-Fc
# Description: Antibody binding to plate-immobilized cyno PSGL-1(ECD) was determined either at one concentration (20 nM) or by generating full antibody binding curves (0.003-200 nM). A typical ELISA was performed by overnight coating at 4° C. with 3 ug/mL/25 ul per well of recombinant cyno PSGL-1(ECD) protein in PBS, pH 7.4, in high binding half-well plates (Corning Cat. #3690). […] Anti-PSGL-1 IgG in assay buffer (blocking buffer containing 0.05% tween 20) was added into test and control wells (20 nM/25 ul/well) and the plate incubated for 45 min at 37° C. […] The plate was incubated for 45 min at 37° C., and mAb bound to plate-immobilized target determined at A450 nm using HRP substrate (3,3′,5,5′-tetramethylbenzidine (TMB)). For each antibody, duplicate values were averaged and assay background subtracted.
row,binding result,Binder
1,no binding (tested: 20 nM),B1
2,no binding (tested: 20 nM),B2
3,no binding (tested: 20 nM),B3
4,no binding (tested: 20 nM),B4
5,no binding (tested: 20 nM),B5

# Molecular target: T9, Scrambled Y42,52,63(SO3) PSGL-1(42-62) biotin peptide (sulfotyrosine at peptide positions 1, 11 and 22; C-terminal Lys-biotin)
# T9 peptide: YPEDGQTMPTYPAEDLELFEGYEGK
# Test: ELISA, immobilized biotin peptide
# Method in brief: (§2)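 In this ELISA, half-well high binding plates (Corning Cat. #3690) received 3 ug/mL/25 ul per well of biotin-tagged PSGL-1 peptides covering residues 42 to 62, diluted in PBS, pH 7.4, and coated overnight at 4° C. Duplicate readings for each antibody were averaged and the average assay background was subtracted. PSGL-1 protein or peptide was the positive control.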
binding result,"A450nm, 20 nM mAb [A450nm]",Binder
no binding (tested: 20 nM),,B1
no binding (tested: 20 nM),0.03,B2
no binding (tested: 20 nM),,B3
no binding (tested: 20 nM),0.04,B4
no binding (tested: 20 nM),,B5

# Molecular target: T10, Biotin PSGL-1(42-62) peptide, unmodified (human, C-terminal Lys-biotin)
# T10 construct: Residues 42-62 followed by GGGK-biotin; also called WT; wild-type
# T10 peptide: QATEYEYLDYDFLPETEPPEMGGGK
# Test: ELISA, immobilized biotin peptide
# Method in brief: as §2
EC50 [nM],"A450nm, 20 nM mAb [A450nm]",Binder
3.8,,B1
> 500,,B2
,0.37,B3
~500,,B4
,0.17,B5

# Molecular target: T11, Biotin Y46,48,51(SO3) PSGL-1(42-62) peptide (human, sulfotyrosine at Y46, Y48 and Y51; C-terminal Lys-biotin)
# T11 construct: also called fully sulfated N-terminal PSGL-1 peptide
# T11 peptide: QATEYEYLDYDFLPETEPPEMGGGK
# Test: ELISA, immobilized biotin peptide
# Method in brief: as §2
"A450nm, 20 nM mAb [A450nm]",EC50 [nM],Binder
2.72,0.03,B1
2.45,1.6,B2
2.57,,B3
2.62,0.04,B4
2.44,,B5
